Data on 18 molecules can be found in publication doi:10.1101/2024.06.03.596960 (bioRxiv, 2024).

B1: ZBTB16 BTB domain (residues 1-130) (domain or fragment)
chain: MDLTKMGMIQLQNPSHPTGLLCKANQMRLAGTLCDVVIMVDSQEFHAHRTVLACTSKMFEILFHRNSQHYTLDFLSPKTFQQILEYAYTATLQAKAEDLDDLLYAAEILEIEYLEEQCLKMLETIQASDD

For the first experiment, the target named is His10-TEV-BACH1^BTB (UniProt O14867). Put plainly: AlphaScreen or HTRF. On the technique in general: Bead proximity is the source of the signal in Alpha formats.
“SKP1-FBXO22(R376P) (from UniProt P63208 2-163; Q8NEZ5 12-403) (complex)”: the IC50 (in general, the concentration that inhibits the measured activity by half) worked out at 1350 nM.
In turn, “SKP1-FBXO22(R367L) (cancer-associated, TCGA) (from UniProt P63208 2-163; Q8NEZ5 12-403) (complex)” yielded a half-maximal inhibitory concentration (IC50) of 1040 nM. This IC50 and that of the molecule before are within 1.5-fold of each other.
The same measure, in the same setting: as for “SKP1-FBXO22(R376D) (from UniProt P63208 2-163; Q8NEZ5 12-403) (complex)”, the figure is 900 nM.
As to “SKP1-FBXO22(R367W) (cancer-associated, TCGA) (from UniProt P63208 2-163; Q8NEZ5 12-403) (complex)”, the half-maximal inhibitory concentration (IC50) came to 1480 nM.
For “SKP1-FBXO22(Q307E) (cancer-associated, TCGA) (from UniProt P63208 2-163; Q8NEZ5 12-403) (complex)”, the half-inhibitory concentration (IC50) came out at 575 nM.
As to “SKP1-FBXO22(Q307R) (cancer-associated, TCGA) (from UniProt P63208 2-163; Q8NEZ5 12-403) (complex)”, the IC50 came out at 165 nM. This IC50 lies about 3.5-fold lower than the previous one.

The target of the next experiment is biotinylated ^AviSKP1-FBXO22(12-403) (UniProt P63208). Put plainly: AlphaScreen or HTRF.
Chain of biotinylated ^AviSKP1-FBXO22(12-403) (P63208 2-163, chain 1 of 2): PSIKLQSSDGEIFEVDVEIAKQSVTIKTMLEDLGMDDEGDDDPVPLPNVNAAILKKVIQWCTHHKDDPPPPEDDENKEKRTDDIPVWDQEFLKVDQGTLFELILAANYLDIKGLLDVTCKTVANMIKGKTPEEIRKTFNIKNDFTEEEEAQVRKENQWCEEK
Chain of biotinylated ^AviSKP1-FBXO22(12-403) (Q8NEZ5 12-403, chain 2 of 2, further chain): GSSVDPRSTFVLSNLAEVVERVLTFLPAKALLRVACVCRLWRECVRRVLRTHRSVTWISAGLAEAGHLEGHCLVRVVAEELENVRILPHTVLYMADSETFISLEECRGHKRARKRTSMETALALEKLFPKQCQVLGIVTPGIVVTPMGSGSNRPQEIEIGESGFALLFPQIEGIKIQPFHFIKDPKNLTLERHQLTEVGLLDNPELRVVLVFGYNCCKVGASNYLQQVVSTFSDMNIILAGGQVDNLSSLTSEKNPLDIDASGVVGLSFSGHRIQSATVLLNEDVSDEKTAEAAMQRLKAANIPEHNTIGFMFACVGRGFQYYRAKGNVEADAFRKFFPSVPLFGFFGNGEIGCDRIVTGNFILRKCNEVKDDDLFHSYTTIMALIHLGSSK
“BACH1^BTB E12R (from UniProt O14867 7-128) (domain or fragment)” came in with an IC50 of 149 nM. This lies in the sub-micromolar range.
The same measure, in the same setting: as for “BACH1^BTB F125A (from UniProt O14867 7-128) (domain or fragment)”, the figure is 7460 nM.
The same measure, in the same setting: with “BACH1^BTB F9A (from UniProt O14867 7-128) (domain or fragment)” the figure was 320 nM; with “BACH1^BTB S13D (from UniProt O14867 7-128) (domain or fragment)”, 2460 nM.
As to “KEAP1 BTB domain (residues 48-180) (from UniProt Q14145 48-180) (domain or fragment)”, the IC50 is 150 nM.
The same measure, in the same setting: with “BACH1^BTB S13A (from UniProt O14867 7-128) (domain or fragment)” the figure was 183 nM; with “BACH1^BTB F125Y (from UniProt O14867 7-128) (domain or fragment)”, 656 nM; with “BACH2 BTB domain (residues 8-131) (from UniProt Q9BYV9 8-131) (domain or fragment)”, 85 nM.
The same measure, in the same setting: with “BACH1 BTB domain (residues 7-128), wild type, tag-free (from UniProt O14867 7-128) (domain or fragment)” the figure was 64 nM; with “BACH1^BTB Y11F (from UniProt O14867 7-128) (domain or fragment)”, 140 nM.
On the same count and under the same terms, as for “BACH1^BTB Y11A (from UniProt O14867 7-128) (domain or fragment)”, the figure is 2660 nM.

A further experiment shares this target. Put plainly: AlphaScreen or HTRF. The source holds these as a separate data set.
For the molecule B1, the IC50 is 622 nM. This counts as sub-micromolar.
